# B1: CPEB3 Ribozyme (parent)
# chain: UAACAGGGGGCCACAGCAGAAGCGUUCACGUCGCAGCCCCUGUCAGAUUCUGGUGAAUCUGCGAAUUCUGCUGUAUAUCUC
# Variants of: B1
# Assay: self-cleavage, relative activity (ratio to wild type); higher = more cleavage; in vitro, sequencing
# Procedure, shortened: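 Relative activity compares each variant's cleaved/total read fraction with that of the unmutated ribozyme. To get these fractions, barcoded CPEB3 ribozyme libraries from rounds of error-prone PCR were transcribed with T7 RNA polymerase for 5 hours at 37°C and then given 15 min of DNase I treatment before EDTA was added. The RNAs were reverse transcribed with template switching and sequenced on Illumina, and DNA sequencing linked barcodes to variants. A minimum of 5 reads applied, and three batches were averaged.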
row,Variant,self-cleavage
1,UAACAGGGGGCCACAGCAGAAGCGGUCACGUCGCGGCCCCUGUCAGAUUCUGGUGAAUCUGCGAAUUCUGCUGUAUAUCUC [U25G A35G],0.9
2,UAACAGGGGGCCACAGCAGAAGCGGUCACGUCGCUGCCCCUGUCAGAUUCUGGUGAAUCUGCGAAUUCUGCUGUAUAUCUC [U25G A35U],0.39
3,UAACAGGGGGCCACAGCAGAAGCGCGCACGUCGCAGCCCCUGUCAGAUUCUGGUGAAUCUGCGAAUUCUGCUGUAUAUCUC [U25C U26G],0.31
4,UAACAGGGGGCCACAGCAGAAGCGCCCACGUCGCAGCCCCUGUCAGAUUCUGGUGAAUCUGCGAAUUCUGCUGUAUAUCUC [U25C U26C],0.27
5,UAACAGGGGGCCACAGCAGAAGCGCACACGUCGCAGCCCCUGUCAGAUUCUGGUGAAUCUGCGAAUUCUGCUGUAUAUCUC [U25C U26A],0.28
6,UAACAGGGGGCCACAGCAGAAGCGCUCACGCCGCAGCCCCUGUCAGAUUCUGGUGAAUCUGCGAAUUCUGCUGUAUAUCUC [U25C U31C],0.23
7,UAACAGGGGGCCACAGCAGAAGCGCUCACGACGCAGCCCCUGUCAGAUUCUGGUGAAUCUGCGAAUUCUGCUGUAUAUCUC [U25C U31A],0.25
8,UAACAGGGGGCCACAGCAGAAGCGCUCACGGCGCAGCCCCUGUCAGAUUCUGGUGAAUCUGCGAAUUCUGCUGUAUAUCUC [U25C U31G],0.23
9,UAACAGGGGGCCACAGCAGAAGCGCUCACGUCGCAGCCCCUGUCAGAUUCUGGUGAAUCGGCGAAUUCUGCUGUAUAUCUC [U25C U60G],0.13
10,UAACAGGGGGCCACAGCAGAAGCGCUCACGUCGCAGCCCCUGUCAGAUUCUGGUGAAUCCGCGAAUUCUGCUGUAUAUCUC [U25C U60C],0.23
11,UAACAGGGGGCCACAGCAGAAGCGCUCACGUCGCAGCCCCUGUCAGAUUCUGGUGAAUCAGCGAAUUCUGCUGUAUAUCUC [U25C U60A],0.24
12,UAACAGGGGGCCACAGCAGAAGCGCUCACGUCGCAGCCCCUGUCAGAUUCGGGUGAAUCUGCGAAUUCUGCUGUAUAUCUC [U25C U51G],0.12
13,UAACAGGGGGCCACAGCAGAAGCGCUCACGUCGCAGCCCCUGUCAGAUUCCGGUGAAUCUGCGAAUUCUGCUGUAUAUCUC [U25C U51C],0.26
14,UAACAGGGGGCCACAGCAGAAGCGCUCACGUCGCAGCCCCUGUCAGAUUCAGGUGAAUCUGCGAAUUCUGCUGUAUAUCUC [U25C U51A],0.27
15,UAACAGGGGGCCACAGCAGAAGCGCUCACGUCGCAGCCCCUGUCAGAUUCUGGUGAAUCUGCGAAUUCAGCUGUAUAUCUC [U25C U69A],0.22
16,UAACAGGGGGCCACAGCAGAAGCGCUCACGUCGCAGCCCCUGUCAGAUUCUGGUGAAUCUGCGAAUUCCGCUGUAUAUCUC [U25C U69C],0.22
17,UAACAGGGGGCCACAGCAGAAGCGCUCACGUCGCAGCCCCUGUCAGAUUCUGGUGAAUCUGCGAAUUCGGCUGUAUAUCUC [U25C U69G],0.21

row,Variant,self-cleavage
1,UAACAGGGGGCCACAGCAGAAGCGCUCACGUCGCAGCCCCUGUCAGAUUCUGGUGAACCUGCGAAUUCUGCUGUAUAUCUC [U25C U58C],0.26
2,UAACAGGGGGCCACAGCAGAAGCGCUCACGUCGCAGCCCCUGUCAGAUUCUGGUGAAACUGCGAAUUCUGCUGUAUAUCUC [U25C U58A],0.29
3,UAACAGGGGGCCACAGCAGAAGCGCUCACGUCGCAGCCCCUGUCAGAUUCUGGUGAAGCUGCGAAUUCUGCUGUAUAUCUC [U25C U58G],0.33
4,UAACAGGGGGCCACAGCAGAAGCGCUCACGUCGCAGCCCCUGUCAGAUUCUGGUGAAUCUGCGAACUCUGCUGUAUAUCUC [U25C U66C],0.27
5,UAACAGGGGGCCACAGCAGAAGCGCUCACGUCGCAGCCCCUGUCAGAUUCUGGUGAAUCUGCGAAGUCUGCUGUAUAUCUC [U25C U66G],0.69
6,UAACAGGGGGCCACAGCAGAAGCGCUCACGUCGCAGCCCCUGUCAGAUUCUGGUGAAUCUGCGAAAUCUGCUGUAUAUCUC [U25C U66A],0.35
7,UAACAGGGGGCCACAGCAGAAGCGGUCACGUCGCAGCCCCUGUCAGAUUCUGGUGAAUCUGCGAAUUCUGCUGUAUAUCUC [U25G],0.31
8,UAACAGGGGGCCACAGCAGAAGCGCUCACGUCGCAGCCCCUGUCAGAUUCUGGUGAAUCUGCGAAUUCUGCUUUAUAUCUC [U25C G73U],0.43
9,UAACAGGGGGCCACAGCAGAAGCGCUCACGUCGCAGCCCCUGUCAGAUUCUGGUUAAUCUGCGAAUUCUGCUGUAUAUCUC [U25C G55U],0.21
10,UAACAGGGGGCCACAGCAGAAGCGGUCACGUCGCAGCCCCUGUCGGAUUCUGGUGAAUCUGCGAAUUCUGCUGUAUAUCUC [U25G A45G],0.29
11,UAACAGGGGGCCACAGCAGAAGCGCUCACGUCGCAGCCCCUGUCAGAUUCUGGUGAAUCUGCGAAUUCUGCUGUAUAUCCC [U25C U80C],0.35
12,UAACAGGGGGCCACAGCAGAAGCGCUCACGUCGCAGCCCCUGUCAGAUUCUGGUGAAUCUGCGAAUUCUGCUGUAUAUCAC [U25C U80A],0.28
13,UAACAGGGGGCCACAGCAGAAGCGCUCACGUCGCAGCCCCUGUCAGAUUCUGGUGAAUCUGCGAAUUCUGCUGUAGAUCUC [U25C U76G],0.45
14,UAACAGGGGGCCACAGCAGAAGCGCUCACGUCGCAGCCCCUGUCAGAUUCUGGUGAAUCUGCGAAUUCUGCUGUACAUCUC [U25C U76C],0.3
15,UAACAGGGGGCCACAGCAGAAGCGCUCACGUCGCAGCCCCUGUCAGAUUCUGGUGAAUCUGCGAAUUCUGCUGUAAAUCUC [U25C U76A],0.33
16,UAACAGGGGGCCACAGCAGAAGCGCUCACGUCGCAGCCCCCGUCAGAUUCUGGUGAAUCUGCGAAUUCUGCUGUAUAUCUC [U25C U41C],0.28
17,UAACAGGGGGCCACAGCAGAAGCGCUCACGUCGCAGCCCCGGUCAGAUUCUGGUGAAUCUGCGAAUUCUGCUGUAUAUCUC [U25C U41G],0.27

# — the RNAGym collection of RNA variant scans (doi:10.1093/nar/gkz1192)
